Results reported in patent US9005963B2, “Amino acid sequences directed against cellular receptors for viruses and bacteria” (Ablynx N.V., priority 2008, dated 2015).
Marks after values point to notes of the source that are not given here. One block for each molecule: values may come before it.

Experiments:
CXCR4 [1] = biological target: T1, CXCR4 (Homo sapiens, UniProt P61073); assay: Binding of 125I-labeled Nanobodies to membranes from HEK293T cells expressing CXCR4 compared to CXCR3; set-up: expressed in transfected cells; host or cells: HEK293T, transient (pcDNA3.1-CXCR4)
T1 sequence (P61073 whole entry): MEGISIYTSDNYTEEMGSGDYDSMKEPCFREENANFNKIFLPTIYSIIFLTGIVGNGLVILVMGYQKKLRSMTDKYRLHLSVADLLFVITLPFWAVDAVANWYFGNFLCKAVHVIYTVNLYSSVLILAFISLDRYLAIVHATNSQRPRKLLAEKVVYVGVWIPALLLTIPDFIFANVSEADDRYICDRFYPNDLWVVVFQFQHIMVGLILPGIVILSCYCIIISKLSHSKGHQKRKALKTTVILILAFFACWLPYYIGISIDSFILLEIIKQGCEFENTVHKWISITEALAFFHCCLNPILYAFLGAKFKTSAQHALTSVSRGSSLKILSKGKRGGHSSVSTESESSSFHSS
Experimental: (§1) Membranes from HEK293T cells transiently expressing CXCR3 or CXCR4 were prepared 48 h after transfection as follows. Cells were washed and scraped from the cell culture dishes with ice-cold PBS containing 1 mm EDTA. The scraped cells were pelleted at 1500×g for 10 min at 4° C. The pellet was washed and then resuspended in ice-cold membrane buffer (15 mM Tris, pH 7.5, 1 mM EGTA, 0.3 mM EDTA, and 2 mM MgCl2). The cell suspension was homogenized by 10 strokes at 1200 rpm using a Teflon-glass homogenizer and rotor and further subjected to three freeze-thaw cycles using liquid nitrogen. Membranes were separated by centrifugation at 40,000 g for 25 min at 4° C. The membrane pellet was washed and resuspended in ice-cold Tris-sucrose buffer (20 mM Tris, pH 7.4, and 250 mM sucrose) and frozen in liquid nitrogen. The total protein was determined using a Bradford assay (Bio-Rad).
Periplasmas (1:10) or ligands were pre-incubated with membranes in binding buffer (50 mM HEPES (pH 7.4), 1 mM CaCl2, 5 mM MgCl2, 100 mM NaCl, 0.5% bovine serum albumin) supplemented with 0.5% BSA for 1 h at 22° C. before the addition of [^125I]-CXCL12 (40 pM) or [^125I]-238D2 (3 nM) or [^125I]-238D4 (3 nM) for additional 2 h at 22° C. […] Plates were counted by liquid scintillation.

CXCR4 [2] = biological target: T1, CXCR4; assay: Competition binding with [125I]-CXCL12 on membranes from HEK293T cells transiently expressing CXCR4; set-up: expressed in transfected cells; host or cells: HEK293T, transient (pcDNA3.1-CXCR4); displacement of specifically bound [125I]-CXCL12 (in words): dose or concentration left out as unconfirmed; settings: for pKi ([125I]-CXCL12): HEK293T-CXCR4 membranes; for Displacem. (%) of [125I]-CXCL12: maximal displacement, a: no significant displacement at 0.5 μM, b/c(B-6): maximum not reached, displacement at 0.5 μM
Experimental: as §1
Membranes were then harvested over polyethylenimine (0.5%)-treated Whatman GF/C filter plates and washed three times with ice cold binding buffer containing 500 mM NaCl. Plates were counted by liquid scintillation. […]

CXCR4 [3] = biological target: T1, CXCR4; assay: Competition binding with [125I]-238D4 on membranes from HEK293T cells transiently expressing CXCR4; set-up: expressed in transfected cells; host or cells: HEK293T, transient (pcDNA3.1-CXCR4)
Experimental: as §1
(§2) Membranes were then harvested over polyethylenimine (0.5%)-treated Whatman GF/C filter plates and washed three times with ice cold binding buffer containing 500 mM NaCl. Plates were counted by liquid scintillation.

CXCR4 [4] = biological target: T1, CXCR4; assay: Competition binding with [125I]-238D2 on membranes from HEK293T cells transiently expressing CXCR4; set-up: expressed in transfected cells; host or cells: HEK293T, transient (pcDNA3.1-CXCR4)
Experimental: as §1, §2

[5] = 238C5 only at high concentrations (≧100 nM)
[6] = maximal displacement, a: no significant displacement at 0.5 μM, b: displacement at 0.5 μM

binding to CXCR4 membranes compared to CXCR3 membranes (CXCR4 [1]): selectively bound
B1: [^125I]-238D2: 125I-labeled NANOBODY 238D2 for competition binding studies (protein)
VHH: EVQLVESGGGLVQTGGSLRLSCAASGFTFSSYAMSWVRQAPGKGLEWVSGIKSSGDSTRYAGSVKGRFTISRDNAKNMLYLQMYSLKPEDTAVYYCAKSRVSRTGLYTYDNRGQGTQVTVSS

pKi ([125I]-CXCL12) (CXCR4 [2]): <6.3
Displacem. (%) of [125I]-CXCL12 (CXCR4 [2]): 0^a %
displacement of specifically bound [125I]-CXCL12 (in words) (CXCR4 [2]; purified Nanobodies): unable to displace
displacement of [125I]-238D4 (in words) (CXCR4 [3]; [5]): unable to inhibit
pKi ([125I]-238D4) (CXCR4 [3]; HEK293T-CXCR4 membranes): <6.3
Displacem. (%) of [125I]-238D4 (CXCR4 [3]; [6]): 0^a %
displacement of [125I]-238D2 (in words) (CXCR4 [4]; [5]): unable to inhibit
pKi ([125I]-238D2) (CXCR4 [4]; HEK293T-CXCR4 membranes): <6.3
Displacem. (%) of [125I]-238D2 (CXCR4 [4]; [6]): 0^a %
B2: 237D2: selected Nanobody, SEQ ID NO: 241 (protein)
VHH: EVQLVESGGGLVQPGGSLRLSCAASGFTFDDYAMSWVRQAPGKGLEWVSAISWNGGSTDYADSVKGRFTISRDNAKNTLYLQMNSLKSEDTAEYYCARDQGPFYSGTYYYTRQYGYRGQGTQVTVSS
modifications: Nanobodies

pKi ([125I]-CXCL12) (CXCR4 [2]): 7.35 ± 0.07
Rel. potency, relative to monovalent 238D2 (CXCR4 [2]; [125I]-CXCL12 displacement affinity, fold): 0.18^a
Displacem. (%) of [125I]-CXCL12 (CXCR4 [2]): 110 ± 2%
B3: 238D2-20GS-238C5: bivalent Nanobody, SEQ ID NO: 265 (protein)
chain: EVQLVESGGGLVQTGGSLRLSCAASGFTFSSYAMSWVRQAPGKGLEWVSGIKSSGDSTRYAGSVKGRFTISRDNAKNMLYLQMYSLKPEDTAVYYCAKSRVSRTGLYTYDNRGQGTQVTVSSGGGGSGGGGSGGGGSGGGGSEVQLMESGGGLVQAGGSLRLACAASGFTFEDYAIGWFRKAPGKEREGVSCISGSDGSTTYADSVKGRFTISTDNAKNTVYLEMNSLKPEDTAVYYCAQQYGVGGRVVCPGPYEYDVWGQGTQVTVSS
modifications: Nanobodies

binding to CXCR4 membranes compared to CXCR3 membranes (CXCR4 [1]): selectively bound
B4: [^125I]-238D4: 125I-labeled NANOBODY 238D4 for competition binding studies (protein)
VHH: EVQLMESGGGLVQAGGSLRLSCAASGRTFNNYAMGWFRRAPGKEREFVAAITRSGVRSGVSAIYGDSVKDRFTISRDNAKNTLYLQMNSLKPEDTAVYTCAASAIGSGALRRFEYDYSGQGTQVTVSS
